pKd: −log10 of the molar value.

The term pKd denotes −log10 of the Kd, conventionally taken in molar units. Low values mean a high Kd, high ones a low Kd.

In the assay the target is Aβ_(1–40) fibrils (amyloid β peptide 1–40, fibrillar form) (UniProt P05067). Put plainly: SPR; BIAcore 3000, CM5 chip; Aβ 1–40 fibrils immobilised by amine coupling at 2000 RU; ApoE4 injected at 20 μL/min until saturation; degassed PBS pH 7.4, 25 °C. For orientation: SPR reads the build-up and loss of mass on a sensor chip optically.
Aβ_(1–40) fibrils (amyloid β peptide 1–40, fibrillar form), sequence (P05067 672-711): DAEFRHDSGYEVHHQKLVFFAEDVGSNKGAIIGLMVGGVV

Substance “recombinant human ApoE4 (Apolipoprotein E, ε4 allele) (from UniProt P02649 19-317) (natural protein)” gave a negative logarithm of the Kd (pKd) of 8.30.

These data come from paper PMC6907347.
